From US20100184658A1 (published 2010)

Assays:
Assay in all cases: cell-based or functional assay
PRKCA (PKC alpha) = PRKCA (PKC alpha) (UniProt P17252 1-672, limits assumed)
PRKCH (PKC eta) = PRKCH (PKC eta) (UniProt P24723 1-683, limits assumed)
ABL1 E255K = ABL1 E255K (UniProt P00519 1-1130, limits assumed)
[1] = molecular target: T1, STK3 (MST2) Serine/threonine kinase 3 (STE20 homolog, yeast) (UniProt Q13188 1-491, limits assumed)
T1 sequence (looked up): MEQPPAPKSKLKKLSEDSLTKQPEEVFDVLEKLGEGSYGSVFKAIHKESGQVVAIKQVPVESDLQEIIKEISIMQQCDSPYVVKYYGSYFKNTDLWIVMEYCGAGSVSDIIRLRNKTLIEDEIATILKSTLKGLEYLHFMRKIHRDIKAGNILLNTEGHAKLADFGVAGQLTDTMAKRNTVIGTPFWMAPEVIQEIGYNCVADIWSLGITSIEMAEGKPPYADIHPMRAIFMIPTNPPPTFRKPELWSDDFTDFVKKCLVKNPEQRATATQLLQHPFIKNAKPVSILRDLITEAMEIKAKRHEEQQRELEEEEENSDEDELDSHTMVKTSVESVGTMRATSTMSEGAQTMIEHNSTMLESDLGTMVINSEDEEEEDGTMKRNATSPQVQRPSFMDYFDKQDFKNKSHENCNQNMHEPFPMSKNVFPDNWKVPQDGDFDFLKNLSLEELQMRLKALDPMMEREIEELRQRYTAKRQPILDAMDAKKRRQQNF

PDK1 = molecular target: T2, PDK1 (human (printed as (h)), UniProt O15530 1-556, limits assumed)
T2 sequence (looked up): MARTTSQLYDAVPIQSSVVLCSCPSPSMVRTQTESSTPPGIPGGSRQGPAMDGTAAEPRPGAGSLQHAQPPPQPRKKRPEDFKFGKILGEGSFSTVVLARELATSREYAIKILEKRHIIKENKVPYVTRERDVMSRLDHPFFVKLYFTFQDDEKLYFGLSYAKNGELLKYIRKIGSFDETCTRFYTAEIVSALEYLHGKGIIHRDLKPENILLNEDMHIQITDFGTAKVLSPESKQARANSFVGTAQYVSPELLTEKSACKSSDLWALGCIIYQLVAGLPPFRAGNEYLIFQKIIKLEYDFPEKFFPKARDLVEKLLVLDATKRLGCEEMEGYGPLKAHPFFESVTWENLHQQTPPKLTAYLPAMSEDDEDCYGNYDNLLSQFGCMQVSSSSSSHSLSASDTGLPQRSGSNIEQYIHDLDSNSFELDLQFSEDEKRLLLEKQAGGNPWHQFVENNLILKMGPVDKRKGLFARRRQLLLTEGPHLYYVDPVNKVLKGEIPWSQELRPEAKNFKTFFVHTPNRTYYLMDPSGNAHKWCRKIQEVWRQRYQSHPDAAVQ

[2] = molecular target: T3, MAP4K2 (GCK) Mitogen-activated protein kinase kinase kinase kinase 2 (UniProt Q12851 1-820, limits assumed)
T3 sequence (looked up): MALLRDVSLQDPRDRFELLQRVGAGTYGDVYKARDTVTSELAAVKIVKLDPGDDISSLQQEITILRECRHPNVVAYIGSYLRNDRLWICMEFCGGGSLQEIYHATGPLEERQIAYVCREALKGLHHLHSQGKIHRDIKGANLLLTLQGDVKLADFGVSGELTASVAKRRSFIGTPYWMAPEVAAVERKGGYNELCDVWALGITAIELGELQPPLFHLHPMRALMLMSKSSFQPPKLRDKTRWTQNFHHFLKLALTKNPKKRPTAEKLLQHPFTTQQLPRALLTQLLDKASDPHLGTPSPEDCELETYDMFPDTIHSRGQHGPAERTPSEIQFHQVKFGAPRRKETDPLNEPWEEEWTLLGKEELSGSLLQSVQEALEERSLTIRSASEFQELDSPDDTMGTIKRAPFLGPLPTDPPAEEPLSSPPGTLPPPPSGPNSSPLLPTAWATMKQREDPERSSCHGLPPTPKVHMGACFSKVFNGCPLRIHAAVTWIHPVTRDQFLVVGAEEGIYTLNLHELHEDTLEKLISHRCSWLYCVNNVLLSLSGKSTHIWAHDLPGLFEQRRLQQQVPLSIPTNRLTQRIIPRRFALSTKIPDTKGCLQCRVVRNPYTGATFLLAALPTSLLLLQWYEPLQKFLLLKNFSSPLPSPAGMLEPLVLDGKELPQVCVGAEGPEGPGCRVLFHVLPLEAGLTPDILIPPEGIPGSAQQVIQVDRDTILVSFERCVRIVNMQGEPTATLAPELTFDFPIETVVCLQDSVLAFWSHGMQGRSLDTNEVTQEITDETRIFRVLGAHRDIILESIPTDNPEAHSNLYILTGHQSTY

[3] = molecular target: T4, PRKD2 (PKD2) Protein kinase D2 (UniProt Q9BZL6 1-878, limits assumed)
T4 sequence (looked up): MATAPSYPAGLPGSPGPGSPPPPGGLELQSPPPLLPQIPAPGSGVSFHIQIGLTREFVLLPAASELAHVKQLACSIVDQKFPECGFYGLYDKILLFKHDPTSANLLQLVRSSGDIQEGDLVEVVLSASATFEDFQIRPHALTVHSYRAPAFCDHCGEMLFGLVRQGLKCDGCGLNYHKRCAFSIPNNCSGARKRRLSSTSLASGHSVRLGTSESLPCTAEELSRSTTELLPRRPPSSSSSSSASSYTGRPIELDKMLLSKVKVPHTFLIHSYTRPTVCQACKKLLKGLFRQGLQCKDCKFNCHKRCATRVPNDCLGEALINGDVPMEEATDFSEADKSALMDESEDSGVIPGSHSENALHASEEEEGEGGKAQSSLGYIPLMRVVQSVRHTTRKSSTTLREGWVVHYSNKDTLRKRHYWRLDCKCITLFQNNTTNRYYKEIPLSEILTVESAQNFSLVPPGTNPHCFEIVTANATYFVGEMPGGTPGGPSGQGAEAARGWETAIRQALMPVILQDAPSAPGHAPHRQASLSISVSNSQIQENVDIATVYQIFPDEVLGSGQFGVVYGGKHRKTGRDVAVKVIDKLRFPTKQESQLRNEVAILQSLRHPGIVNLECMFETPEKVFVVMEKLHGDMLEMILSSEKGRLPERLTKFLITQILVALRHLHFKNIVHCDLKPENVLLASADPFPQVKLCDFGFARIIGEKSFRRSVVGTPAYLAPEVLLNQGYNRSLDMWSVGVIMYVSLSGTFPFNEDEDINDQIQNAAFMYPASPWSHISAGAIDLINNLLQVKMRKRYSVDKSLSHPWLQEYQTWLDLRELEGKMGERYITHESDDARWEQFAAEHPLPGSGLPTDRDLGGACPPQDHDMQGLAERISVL
Note: test concentration or dose not given here.

Sequence of PRKCH (PKC eta) (P24723 whole entry): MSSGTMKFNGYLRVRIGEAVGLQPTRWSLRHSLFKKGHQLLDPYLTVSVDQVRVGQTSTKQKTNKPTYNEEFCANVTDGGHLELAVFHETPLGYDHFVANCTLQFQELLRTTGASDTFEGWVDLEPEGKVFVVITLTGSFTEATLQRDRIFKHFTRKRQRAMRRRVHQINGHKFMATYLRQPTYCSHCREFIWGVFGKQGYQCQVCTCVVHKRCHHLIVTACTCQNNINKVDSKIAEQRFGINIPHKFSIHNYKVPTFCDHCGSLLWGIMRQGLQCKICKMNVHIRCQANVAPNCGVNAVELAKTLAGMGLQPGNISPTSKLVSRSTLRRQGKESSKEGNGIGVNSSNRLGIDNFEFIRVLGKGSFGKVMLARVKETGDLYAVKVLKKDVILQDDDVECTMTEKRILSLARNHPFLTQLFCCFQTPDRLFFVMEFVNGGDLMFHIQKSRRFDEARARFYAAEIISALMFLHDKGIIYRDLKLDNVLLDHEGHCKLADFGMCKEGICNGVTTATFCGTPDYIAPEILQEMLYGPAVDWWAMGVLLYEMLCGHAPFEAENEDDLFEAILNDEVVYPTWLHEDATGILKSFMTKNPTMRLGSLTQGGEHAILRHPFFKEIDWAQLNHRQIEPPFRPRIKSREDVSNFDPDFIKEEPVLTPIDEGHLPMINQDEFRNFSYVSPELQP
Sequence of ABL1 E255K (P00519 whole entry E255K): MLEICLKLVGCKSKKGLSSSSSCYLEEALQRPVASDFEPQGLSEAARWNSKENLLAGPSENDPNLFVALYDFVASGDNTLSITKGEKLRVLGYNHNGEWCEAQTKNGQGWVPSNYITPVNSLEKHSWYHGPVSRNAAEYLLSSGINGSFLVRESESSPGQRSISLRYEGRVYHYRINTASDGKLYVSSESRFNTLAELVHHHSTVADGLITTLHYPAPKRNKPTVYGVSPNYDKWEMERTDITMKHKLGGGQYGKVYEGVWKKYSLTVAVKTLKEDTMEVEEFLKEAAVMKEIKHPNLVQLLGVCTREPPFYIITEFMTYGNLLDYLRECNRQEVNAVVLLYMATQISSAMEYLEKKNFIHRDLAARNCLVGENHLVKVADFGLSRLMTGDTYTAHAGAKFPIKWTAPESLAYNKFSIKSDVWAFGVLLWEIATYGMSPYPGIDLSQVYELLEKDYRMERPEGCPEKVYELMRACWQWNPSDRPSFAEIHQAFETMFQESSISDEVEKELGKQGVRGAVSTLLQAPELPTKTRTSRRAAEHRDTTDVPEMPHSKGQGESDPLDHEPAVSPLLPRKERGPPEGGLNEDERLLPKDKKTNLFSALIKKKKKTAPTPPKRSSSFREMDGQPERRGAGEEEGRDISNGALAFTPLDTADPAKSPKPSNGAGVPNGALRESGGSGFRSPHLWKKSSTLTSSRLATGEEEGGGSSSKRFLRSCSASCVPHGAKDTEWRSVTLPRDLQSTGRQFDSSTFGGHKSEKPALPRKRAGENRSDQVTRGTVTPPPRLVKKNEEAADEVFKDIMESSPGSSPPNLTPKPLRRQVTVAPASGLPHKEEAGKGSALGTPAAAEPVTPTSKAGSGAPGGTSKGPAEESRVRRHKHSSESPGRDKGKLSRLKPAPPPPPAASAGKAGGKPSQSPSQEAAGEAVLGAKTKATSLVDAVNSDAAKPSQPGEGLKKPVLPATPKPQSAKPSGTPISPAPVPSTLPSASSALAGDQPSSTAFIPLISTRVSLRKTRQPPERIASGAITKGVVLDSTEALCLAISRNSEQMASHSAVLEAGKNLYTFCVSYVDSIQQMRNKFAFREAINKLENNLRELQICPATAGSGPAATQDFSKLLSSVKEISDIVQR

Binder: SGRPPMIVWFNRPFLIAVSHTHGQTILFMAKVINPVGA [D3 peptide]
- % Inhibition mean (PRKCA (PKC alpha)): 45.1%
- % Inhibition mean (PRKCH (PKC eta)): 46.5%
- % Inhibition mean (ABL1 E255K): 65.6%
- % Inhibition mean [1]: 90.4%
- % Inhibition mean (PDK1): 64%
- % Inhibition mean [2]: 98.4%
- % Inhibition mean [3]: 92.5%
